Source: patent US20170174769A1 (Regeneron, published 2017)
Residue numbers refer to the chain shown, from its start. Numbers in names are those of the source.

T1: extracellular domain of human KLB expressed with C-terminal HA and hexahistidine tags (human, UniProt Q86Z14 1-996)
T1 construct: also called hKLB-HA-6His; hKLB-HA-6his
T1 sequence: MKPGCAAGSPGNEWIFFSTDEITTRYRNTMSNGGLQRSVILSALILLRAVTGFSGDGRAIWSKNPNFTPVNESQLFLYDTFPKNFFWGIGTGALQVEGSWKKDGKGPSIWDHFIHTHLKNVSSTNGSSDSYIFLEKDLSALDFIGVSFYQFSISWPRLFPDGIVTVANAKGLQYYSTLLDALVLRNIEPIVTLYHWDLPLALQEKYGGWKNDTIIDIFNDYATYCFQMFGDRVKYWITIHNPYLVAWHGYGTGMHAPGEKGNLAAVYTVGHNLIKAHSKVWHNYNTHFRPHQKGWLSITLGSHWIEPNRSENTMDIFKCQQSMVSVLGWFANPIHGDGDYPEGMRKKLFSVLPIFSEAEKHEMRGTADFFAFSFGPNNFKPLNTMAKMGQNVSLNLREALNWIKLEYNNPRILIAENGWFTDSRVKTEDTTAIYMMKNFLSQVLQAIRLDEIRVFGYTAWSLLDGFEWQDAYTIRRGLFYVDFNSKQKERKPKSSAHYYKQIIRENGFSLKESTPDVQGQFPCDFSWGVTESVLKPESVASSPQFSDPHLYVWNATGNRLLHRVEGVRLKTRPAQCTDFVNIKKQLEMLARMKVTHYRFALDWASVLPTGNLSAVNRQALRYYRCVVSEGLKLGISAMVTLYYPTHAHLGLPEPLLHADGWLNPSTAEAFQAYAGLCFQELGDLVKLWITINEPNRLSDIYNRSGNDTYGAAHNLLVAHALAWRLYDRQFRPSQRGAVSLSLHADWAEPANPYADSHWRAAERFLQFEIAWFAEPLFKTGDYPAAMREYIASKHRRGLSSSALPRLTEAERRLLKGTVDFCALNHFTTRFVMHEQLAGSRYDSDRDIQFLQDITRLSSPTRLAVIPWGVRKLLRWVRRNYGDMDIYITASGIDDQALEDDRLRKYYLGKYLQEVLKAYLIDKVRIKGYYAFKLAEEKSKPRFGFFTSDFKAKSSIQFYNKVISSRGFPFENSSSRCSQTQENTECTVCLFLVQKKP

T2: extracellular domain of human FGFR1c expressed with C-terminal V5 and hexahistidine tags (human, UniProt P11362 22-376)
T2 construct: also called hFGFR1c-V5-6His
T2 sequence: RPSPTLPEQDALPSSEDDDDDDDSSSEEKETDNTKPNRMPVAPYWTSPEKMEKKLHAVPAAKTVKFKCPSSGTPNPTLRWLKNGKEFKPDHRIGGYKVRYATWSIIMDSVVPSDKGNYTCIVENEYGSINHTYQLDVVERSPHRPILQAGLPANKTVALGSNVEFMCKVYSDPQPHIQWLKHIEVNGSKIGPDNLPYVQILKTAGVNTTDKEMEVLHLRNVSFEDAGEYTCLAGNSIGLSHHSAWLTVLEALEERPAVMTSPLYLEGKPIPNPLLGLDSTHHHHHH

B1: H4H8852P (antibody, V domains shown)
VH: QVQLQESGPGLVKPSETLSLTCTVSGGSISSYYWSWIRQPPGKGLEWIGYIYSSGIIKYNPSLKSRVTISADTSKNQFSLKLSSVTAADTAVYYCARHGIFGVMEYFQRWGQGTLVTVSS
VL: DIQMTQSPSSLSASIGDRVTITCQASQDIGNFLNWYQQKPGKAPTLLIYDASNMETGVPSRFSGSGSGTYFTFTISSLQPEDVATYYCQQYDNLPLTFGGGTKVEIK
notes: human IgG4 Fc (H4H prefix)
B2: H4H8856P (antibody, V domains shown)
VH: B1 VH with G49A, S53Y, I57T
VL: B1 VL with G30S, A51V, S67Y, Y70D, F73L, Q79K, V83I, L94I
notes: human IgG4 Fc (H4H prefix)
B3: H4H8871P (antibody, V domains shown)
VH: B1 VH with G27A
VL: B1 VL with Q37H, S63R, T74I
notes: human IgG4 Fc (H4H prefix)
B4: H4H8878P (antibody, V domains shown)
VH: QVQLVESGGGVVQPGRSLRLSCAASGFTLNTYGMHWIRQTPGKGLEWVSLISYDETKEYYVDSVKGRFTISRDNSKNTLYLQMNSVRVEDTAVYYCAKPLTGSTDYYYGLDVWGQGTTVTVSS
VL: DIQMTQSPSYVSASVGDRVIITCRASQDISSWLAWYQQKPGKAPKLLIYVTSSLESGVPSRFSGSGSGTDFTLTISGLQPEDFATYYCQQVKSFPPTFGPGTKVDIK
notes: human IgG4 Fc (H4H prefix)
B5: H4H8837P (antibody, V domains shown)
VH: QVQLVESGGGVVQPGRSLRLSCAASGFTFNSYAMHWVRQAPGMGLEWVAVISSDGSNKYYADSVRGRFTVSRDNSKNTLYLQMNSLRSEDTAVYYCAKDGRGYSSFSHFGMDVWGQGTTVTVSS
VL: DIQMTQSPSTLSASVGDRVTITCRASQSIGSWLAWYQQKPGKAPKLLIYKTSSLESGVPSRFSGSGSGTEFTLTISSLQPDDFASYYCQQYNSYSFGQGTKVEIK
notes: human IgG4 Fc (H4H prefix)
B6: H4H8881P (antibody, V domains shown)
VH: QVQLVQSGAEVKKPGASVKVSCKASGYTFTSYVIHWVRQAPGQRLEWMGWSNAANGDTKYSQEFQDRVTFTRDTSASTAYMELSSLRSEDMAVYYCARWNWNYGAFDIWGQGTMVTVSS
VL: DIQMTQSPSSLSASVGDRVTITCQASQDINNYLHWYQQKSGKAPNLLIYDASILETGVPSRFSGSGSGTDFTFTISSLQPEDIATYYCQQYDNLPYTFGQGTKLEIK
notes: human IgG4 Fc (H4H prefix)

What was measured:
[1] = target: T3, human KLB and human FGFR1c co-expressed on HEK293/hKLB/hFGFR1c/SRE-luc cells (human, UniProt Q86Z14 1-1044; P11362 22-822); assay: cell-based or functional assay
Target sequence in this assay (Q86Z14 whole entry, chain 1 of 2): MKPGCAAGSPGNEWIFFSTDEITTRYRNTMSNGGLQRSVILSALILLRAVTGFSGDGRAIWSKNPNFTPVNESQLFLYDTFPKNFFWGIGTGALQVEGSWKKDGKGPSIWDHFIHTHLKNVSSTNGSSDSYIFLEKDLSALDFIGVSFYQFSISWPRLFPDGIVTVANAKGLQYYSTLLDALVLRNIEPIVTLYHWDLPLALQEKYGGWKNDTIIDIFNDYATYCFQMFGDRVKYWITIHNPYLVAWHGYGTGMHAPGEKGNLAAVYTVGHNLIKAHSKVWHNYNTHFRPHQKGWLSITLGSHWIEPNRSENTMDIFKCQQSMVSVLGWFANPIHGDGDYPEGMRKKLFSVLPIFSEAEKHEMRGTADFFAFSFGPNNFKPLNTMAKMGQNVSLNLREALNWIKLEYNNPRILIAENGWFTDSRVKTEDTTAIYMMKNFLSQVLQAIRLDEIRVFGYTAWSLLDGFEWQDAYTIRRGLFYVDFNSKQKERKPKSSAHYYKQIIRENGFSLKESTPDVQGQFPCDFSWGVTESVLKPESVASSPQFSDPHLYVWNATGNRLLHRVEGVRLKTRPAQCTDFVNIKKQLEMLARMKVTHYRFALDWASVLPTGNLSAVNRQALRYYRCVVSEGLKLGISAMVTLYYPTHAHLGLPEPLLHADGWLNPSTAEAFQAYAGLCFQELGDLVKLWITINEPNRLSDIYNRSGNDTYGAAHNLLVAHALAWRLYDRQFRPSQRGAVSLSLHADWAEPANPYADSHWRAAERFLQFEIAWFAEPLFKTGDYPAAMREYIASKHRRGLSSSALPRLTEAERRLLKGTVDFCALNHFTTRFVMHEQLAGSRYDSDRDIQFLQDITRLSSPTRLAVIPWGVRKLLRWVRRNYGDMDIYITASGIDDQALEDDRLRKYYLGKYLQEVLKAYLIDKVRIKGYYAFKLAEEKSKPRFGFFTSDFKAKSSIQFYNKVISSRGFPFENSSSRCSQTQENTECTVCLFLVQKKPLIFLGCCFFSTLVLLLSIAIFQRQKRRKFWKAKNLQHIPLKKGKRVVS
Target sequence in this assay (P11362 other isoform, or with tags, fused parts or gaps limits assumed, chain 2 of 2): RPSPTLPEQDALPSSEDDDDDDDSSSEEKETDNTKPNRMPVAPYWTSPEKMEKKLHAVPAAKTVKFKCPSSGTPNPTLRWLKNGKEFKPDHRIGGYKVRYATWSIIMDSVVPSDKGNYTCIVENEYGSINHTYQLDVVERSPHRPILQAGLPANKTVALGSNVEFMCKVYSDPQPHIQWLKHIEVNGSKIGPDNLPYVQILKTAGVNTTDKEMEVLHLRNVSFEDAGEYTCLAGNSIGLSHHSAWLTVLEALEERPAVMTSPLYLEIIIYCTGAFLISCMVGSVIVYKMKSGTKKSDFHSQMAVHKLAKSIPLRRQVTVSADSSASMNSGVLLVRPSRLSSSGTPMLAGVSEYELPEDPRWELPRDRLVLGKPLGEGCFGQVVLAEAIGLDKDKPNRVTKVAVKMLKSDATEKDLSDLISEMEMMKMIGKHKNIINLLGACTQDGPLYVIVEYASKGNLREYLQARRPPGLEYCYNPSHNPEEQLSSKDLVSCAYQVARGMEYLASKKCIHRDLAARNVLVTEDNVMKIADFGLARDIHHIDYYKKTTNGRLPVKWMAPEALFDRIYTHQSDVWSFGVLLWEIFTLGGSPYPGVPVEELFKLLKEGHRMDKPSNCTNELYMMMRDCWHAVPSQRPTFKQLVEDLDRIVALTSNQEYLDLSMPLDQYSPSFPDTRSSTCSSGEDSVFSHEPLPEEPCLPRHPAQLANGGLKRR

[2] = target: T3, human KLB and human FGFR1c co-expressed …; assay: cell-based or functional assay; remark: listed apart in the source
[3] = target: T1, extracellular domain of human KLB …; assay: SPR, mAb captured, 25 C
Protocol: (§1) Equilibrium dissociation constants (KD values) for human KLB or human FGFR1c binding to purified anti-KLB/FGFR1c monoclonal antibodies were determined using a real-time surface plasmon resonance biosensor using a Biacore T-200 or 4000 instrument. The Biacore sensor surface was derivatized by amine coupling with either a polyclonal rabbit anti-mouse antibody (GE, # BR-1008-38) or with a monoclonal mouse anti-human Fc antibody (GE, # BR-1008-39) to capture anti-KLB/FGFR1c monoclonal antibodies expressed with either a mouse Fc or a human Fc, respectively. All Biacore binding studies were performed in a buffer composed of 0.01M HEPES pH 7.4, 0.15M NaCl, 3mM EDTA, 0.05% v/v Surfactant P20 (HBST running buffer). […] Association of hKLB-HA-6His or hFGFR1c-V5-6His to the captured monoclonal antibody was monitored for 3.5 to 4 minutes and the dissociation of hKLB-HA-6His or hFGFR1c-V5-6His in HBST running buffer was monitored for 8-12 minutes. All the binding kinetics experiments were performed at 25° C. or 37° C. Kinetic association (kₐ) and dissociation (kd) rate constants were determined by fitting the real-time sensorgrams to a 1:1 binding model using Scrubber 2.0c curve fitting software. Binding dissociation equilibrium constants (KD) and dissociative half-lives (t½) were calculated from the kinetic rate constants as: […]

[4] = target: T2, extracellular domain of human FGFR1c …; assay: SPR, mAb captured, 25 C
Protocol: as §1

[5] = target: T1, extracellular domain of human KLB …; assay: SPR, mAb captured, 37 C
Protocol: as §1

[6] = target: T2, extracellular domain of human FGFR1c …; assay: SPR, mAb captured, 37 C
Protocol: as §1

Row | Binder | EC50, SRE-luc activation without ligand [1] | Maximum Activation (%) without ligand [1] | IC50, inhibition of 1 nM hFGF21 [2] | Maximum Inhibition (%) of 1 nM hFGF21 [2] | 20 nM hKLB-HA-6His Bind (RU) [3] | 180 nM hFGFR1c-V5-6His Bind (RU) [4] | binding result [4] | 20 nM hKLB-HA-6His Bind (RU) [5] | 180 nM hFGFR1c-V5-6His Bind (RU) [6] | Kd [3] | koff [3] | kon [3] | t1/2 [3] | Kd [5] | koff [5] | kon [5] | t1/2 [5]
1 | B1 | 0.21 nM | 5% | 0.38 nM | 101% | -0.2 RU | 0 RU | no binding (tested: 180 nM) | 5.1 RU | 1 RU |  |  |  |  |  |  |  | 
2 | B2 | 0.3 nM | 6% | 0.65 nM | 91% | -0.4 RU | 0.1 RU | no binding (tested: 180 nM) | -0.5 RU | 0.3 RU |  |  |  |  |  |  |  | 
3 | B3 | 0.18 nM | 5% | 0.38 nM | 92% | -0.7 RU | 0.4 RU |  | -0.9 RU | -1.4 RU |  |  |  |  |  |  |  | 
4 | B4 | 0.41 nM | 1% | 0.23 nM | 38% | 28.4 RU | 0.4 RU | no binding (tested: 180 nM) | 101 RU | 0.8 RU | 1.25 nM | 0.000213 s⁻¹ | 170000 M⁻¹ s⁻¹ | 54.3 min | 0.305 nM | 0.000241 s⁻¹ | 790000 M⁻¹ s⁻¹ | 48 min
5 | B5 | 0.12 nM | 1% | 0.08 nM | 51% | 63 RU | 0.2 RU | no binding (tested: 180 nM) | 372 RU | 0.1 RU | 0.367 nM | 0.000128 s⁻¹ | 350000 M⁻¹ s⁻¹ | 90 min | 0.401 nM | 0.000128 s⁻¹ | 320000 M⁻¹ s⁻¹ | 90.1 min
6 | B6 | 0.072 nM | 7% | 0.067 nM | 77% | 92.7 RU | 0.3 RU | no binding (tested: 180 nM) | 101 RU | 0 RU | 0.124 nM | 0.000178 s⁻¹ | 1.44e+06 M⁻¹ s⁻¹ | 65 min | 0.32 nM | 0.000463 s⁻¹ | 1.45e+06 M⁻¹ s⁻¹ | 24.9 min
